Experiment: soluble on expression in E. coli; label from the status in PepcDB or PDB records
In the case of “GFSSEVLKKAYDDTEDIEDQLQQAEGRLFEISQHNMKQDVQPIDPIIKEALGEIQIAANRKEGLSGQPSGFPAIDKLTAGWQASDLIIIAARPAMGKTAFVLSMAKNMAIDYNIPVAIFNLEMSSVQLVKRLMSNVCEIPGEKLKTGRLESHEWVQLDTKLKDFENKPLYIDDTPSLSVFELRTKSRRLVREYGVKVIIIDYLQLMNASGMSFGNREQEVSTISRSLKVLAKELKIPIIALSQLNRSVETRQGDINSKRPQLSDLRESGAIEQDADMVCFIHRPEYYKITEDQQGNSLLGIGEFIIAKHRNGPVDDVRLRFRSEFAKFLPLEAESMVKRHSRIGGSPVEMGVGNGSFAPPLPPPEDNPLLSGPYSSGTSEADFLAEASGIDNPF”, the “soluble on expression in E. coli” value was “not soluble”.
In the case of “MKEKDLIRFMDRMIEERKAEYALGTAHIYQASRNALSAFLKAHDIPFKRVRPELLKQFERFLRRRGNSWNTVSTYMRVLRAVYNRAVDRRLAPHVPHLFKAVYTGTQADIKRALKAEEMGQLLDTKCTRKQSELLQKTHHLFVLMFLLRGLPFVDLAYIQKKDLNGNILTYHRRKTGRQITITVTKDAMNIIREYMDTTTESPYLFPILSAEGGEDTIYREYQQALRIFNYQLTKLGELLGLTTELTSYTARHTWATLAYYLEVHPGIIREAMGHSSIKVTETYLKPFNIKKLDETNLSIIGYAKRSFEG”, the “soluble on expression in E. coli” value was “not soluble”.
With “MAGPLSGLRVVELAGIGPGPHAAMILGDLGADVVRIDRPSSVDGISRDAMLRNRRIVTADLKSDQGLELALKLIAKADVLIEGYRPGVTERLGLGPEECAKVNDRLIYARMTGWGQTGPRSQQAGHDINYISLNGILHAIGRGDERPVPPLNLVGDFGGGSMFLLVGILAALWERQSSGKGQVVDAAMVDGSSVLIQMMWAMRATGMWTDTRGANMLDGGAPYYDTYECADGRYVAVGAIEPQFYAAMLAGLGLDAAELPPQNDRARWPELRALLTEAFASHDRDHWGAVFANSDACVTPVLAFGEVHNEPHIIERNTFYEANGGWQPMPAPRFSRTASSQPRPPAATIDIEAVLTDWDG” the “soluble on expression in E. coli” value was “soluble”.
For “MGSDKIHHHHHHMTIGLSCNALKYGGGLERYAIDLARGLADAGVRPLVFARSFDSSVPEYQCVEPRRINVSFLPGKCRDAWFSWRLRAARRAAPVDVLIGCNRVDSSDIAICGGTHLGFLDAIGRMPTFSDRRQIALERRQYARARFVVAHSMLMRDELRRFYGLSDDKIRVLFPPVDAARFTPVDAVRRAELRTRFGFADDEVVLLFPSSSHERKGLPLIEAILRDAGPRVVVAVAGRPPERTSERLRYVGYVKDIEDGYRAADFTILASKYEPFGLVGVESVMCGTPVILPSNIGCCDAIAPSAKLVFAPGDAAGLRGMLDEAVRRVRAGAVRVESGAAARAAIQYDPSVARHVAQLLDLAAEAASDRRNGGR”, the “soluble on expression in E. coli” value was “not soluble”.
With “MSLKKINFGIVGLGRLGRAHAENLAFKIPNANLLAVCSIDKSQVDEVQKAWNIPYGYTDFDEMLKNKELDAIFIASPSGFHCEQIEKALDAGFHVFSEKPLGLYLDDAVRAMKAVNSHPNQIFMLGFMRRYDKSYAYAKKKIEEGAIGKPVLVRCYGLDPAKALPSFLKFAKDSYSGGLFLDMAIHDIDLARWYLDSEADELWAIGGAYGHKEFDEINDAETGAAMVKFKNGTMALLVAGRNCAHGYHIETEIIGTEGTLRIGTTPDKNLVTVFDSRGVNKECAGGFLERFEDAYLAEVKEFVDCVLENRKPAVTVEDGVLSTIVGYACKESFETGELVKVNYEGYDKLIKEGHHHHHH” the “soluble on expression in E. coli” value was “soluble”.
In the case of “SCQSEKHPGPELQAAEKWLYFPQLALWRRLGQLSCMSRPALNLRSWLLTILHYLLPFRVLGPHSQVGWRPLSRVSLYKTVPTRLLSRACGRLNQVELPYWLWRPVYSLYIWTFGVNMTEAAVEDLHHYHNLSEFFWHQPIMARSSPLGR”, the “soluble on expression in E. coli” value was “not soluble”.
For “MVTPVSICNYISLPDDFPARNIAPQVKEVLKDFIDALSTIICDEEWRTSLNTNSATKKIFNNLDNLSYIQRTSFRGNDTLYNEKVQFKLTYPVKNGRHKENIEFQVVINLSPIYLDNFRHDGEINIFCAPNPKPVTMGRVFQTGVERVLFLFMNDFIEQFPMINLGAPIKRAHTPHIEPLPPDHHTAADYLRQFDLLVLNFISRGNFVILPRLWNNSEVHRWFVNKDPNLITAILDITDSELKEDLLQSLMDSLGSNKHVQPEVCICFLSLLAEQESPHFQDLFLFFANMLLHYHQFMNPNESDLNDVLMPASLSDDKIIKHMARRTLKLFVKNETPPKVTHEDLVKNRPRSPVRPPIPATAKTPDLPERH”, the “soluble on expression in E. coli” value was “not soluble”.

— the DeepSol protein solubility set
